Consider 16 molecules from US20200095333A1 (published 2020).

In test [1] the target is T1, sCD16A (soluble CD16A, FcgammaRIIIA) (human, UniProt P08637 17-208).
T1 construct: extracellular domain; given only as soluble; used immobilised (SPR), coated, or biotin/HRP-labelled as probe (ELISA); also called CD16 antigen; sCD16A-Biotin
The test is described as follows: mCD32-hCD16A binding ELISA.

The target in the next test is T2, mCD32B (murine CD32B) (murine, UniProt P08101 30-210).
T2 sequence: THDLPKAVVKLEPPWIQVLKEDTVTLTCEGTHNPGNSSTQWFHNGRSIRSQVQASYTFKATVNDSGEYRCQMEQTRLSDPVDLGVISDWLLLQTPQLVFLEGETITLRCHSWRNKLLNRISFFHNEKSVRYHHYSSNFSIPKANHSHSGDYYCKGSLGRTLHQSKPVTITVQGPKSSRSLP
Briefly: mCD32-hCD16A binding ELISA. A general note: An ELISA detects its analyte on a solid surface through an enzyme-linked reagent.

For test [2], the target named is T3, human serum albumin (HSA) (human, UniProt P02768 25-609).
T3 construct: also called human albumin; HRP-human albumin
The test is described as follows: HSA binding class (+ = 0.1-0.4).

For test [3], the target named is T3, human serum albumin (HSA). The test is described as follows: HSA binding class (+++ = 0.7-1.0).
The target of test [4] is T3, human serum albumin (HSA). The test is described as follows: deimmunized ABD ELISA (FIG. 57).
In test [5] the target is T3, human serum albumin (HSA). Briefly: albumin binding of ABD variants.
The target of test [6] is T3, human serum albumin (HSA). Briefly: ELISA, HSA coat, biotinylated sCD32B detection.
The target of another test is T4, soluble CD16A(158F) (human, UniProt P08637 17-208).
T4 construct: extracellular domain; also called CD16A(F158); sCD16A
T4 sequence (P08637 17-208): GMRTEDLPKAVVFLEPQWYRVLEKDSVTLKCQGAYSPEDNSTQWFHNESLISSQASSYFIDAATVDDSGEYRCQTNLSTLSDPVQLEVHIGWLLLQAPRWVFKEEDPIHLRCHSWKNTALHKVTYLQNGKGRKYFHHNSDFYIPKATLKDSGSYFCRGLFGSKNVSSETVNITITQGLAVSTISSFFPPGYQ
The test is described as follows: SPR, HSA immobilised, ABD-DART then 200 nM CD32B and 200 nM CD16A(F158). On the technique in general: In SPR one partner is held on a chip, and binding of the other changes the refractive index at the surface.

The target of test [7] is T1, sCD16A (soluble CD16A, FcgammaRIIIA). The test is described as follows: dual ELISA, CD16 coat, biotinylated sCD32B detection.
Test [8] has as its target T5, sCD32B (soluble CD32B, FcgammaRIIB) (human, UniProt P31994 43-217).
T5 construct: extracellular domain; also called soluble CD32B ectodomain
T5 sequence: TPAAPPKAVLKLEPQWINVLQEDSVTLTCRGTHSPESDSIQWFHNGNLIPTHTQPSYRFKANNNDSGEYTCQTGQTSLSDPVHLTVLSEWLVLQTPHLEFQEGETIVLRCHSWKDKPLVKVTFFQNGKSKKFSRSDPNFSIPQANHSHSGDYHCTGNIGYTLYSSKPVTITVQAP
Described as above.

Test [9] addresses T1, sCD16A (soluble CD16A, FcgammaRIIIA). Briefly: sandwich ELISA, CD32B coat, HRP-CD16 probe.
For test [10], the target named is T5, sCD32B (soluble CD32B, FcgammaRIIB). Briefly: sandwich ELISA, CD32B coat, HRP-CD16 probe.
Test [11] addresses T1, sCD16A (soluble CD16A, FcgammaRIIIA). Briefly: SPR (BIAcore), receptor immobilised, diabody 6.25-200 nM.
The target is the same in test [12]. The test is described as follows: sandwich ELISA, CD32B coat, CD16A probe.
The target of test [13] is T5, sCD32B (soluble CD32B, FcgammaRIIB). The test is described as follows: sandwich ELISA, CD32B coat, CD16A probe.

Numbering of substitutions follows the chain as printed. Names may count otherwise.

T1 sequence (P08637 17-208): as the sequence (P08637 17-208) above

B1: Ig-like tetravalent DART (2.4G2-3G8-hKappa / 3G8-2.4G2-hG1) (bispecific antibody)
chain 1: DVQMTQSPSNLAASPGESVSINCKASESISKYLAWYLQKPGKANKLLMYDGSTLQSGIPSRFSGSGSGTDFTLTIRSLEPEDFGLYYCQQHYEYPATFGSGTKLEIKGGGSGGGGQVTLKESGPGILQPSQTLSLTCSFSGFSLRTSGMGVGWIRQPSGKGLEWLAHIWWDDDKRYNPALKSRLTISKDTSSNQVFLKIASVDTADTATYYCAQINPAWFAYWGQGTLVTVSSLGGCGGGSRTVAAPSVFIFPPSDEQLKSGTASVVCLLNNFYPREAKVQWKVDNALQSGNSQESVTEQDSKDSTYSLSSTLTLSKADYEKHKVYACEVTHQGLSSPVTKSFNRGEC
chain 2: not shown
notes: also called Ig DART 1; Ig DART 2
For the molecule B1, the binding result (in test [1]; in the test with mCD32B (murine CD32B)) was “binds” in each case.

B2: ABD I65A/N66D/V71A (other)
chain: LAEAKVLANRELDKYGVSDYYKNLADNAKTAEGVKALIDEILAALP
notes: also called 65A/66D/71A
In test [2], B2 yielded an HSA binding of 0.1 to 0.4.

B3: ABD N66E (other)
chain: B2 chain with A25I, D26E, A31V
For B3, in [3], the HSA binding was in the range of 0.7 to 1.

B4: ABD L64G/N66D/V71A (other)
chain: B2 chain with L24G, A25I
notes: also called 64G/66D/71A
Turning to B4, in [2], the HSA binding lay in the range of 0.1 to 0.4.

B5: variant ABD N66S, T70S and D79A (other)
chain: B2 chain with A25I, D26S, T30S, A31V, D39A
Consider B5, for which the binding result in [4] was “binds”.

B6: ABD N66D/T70S/V71A (ABD (DSA)) (other)
chain: B2 chain with A25I, T30S
Turning to B6, in test [5], the binding result is “binds”.

B7: ABD N66D (other)
chain: B2 chain with A25I, A31V
As to B7, the HSA binding in [3] lay in the range of 0.7 to 1.

B8: variant ABD L64A, I65A and D79A (other)
chain: B2 chain with L24A, D26N, A31V, D39A
Consider B8, for which the binding result in test [4] is recorded as “binds”.

B9: ABD L64A/N66D/V71A (other)
chain: B2 chain with L24A, A25I
notes: also called 64A/66D/71A
For B9, the HSA binding in test [2] lay in the range of 0.1 to 0.4.

B10: hCD16-hCD32B ABD-DART (bispecific antibody)
chain 1: DIVMTQSPDSLAVSLGERATINCKASQSVDFDGDSFMNWYQQKPGQPPKLLIYTTSNLESGVPDRFSGSGSGTDFTLTISSLQAEDVAVYYCQQSNEDPYTFGQGTKLEIKGGGSGGGGQVQLVQSGAEVKKPGASVKVSCKASGYTFTNYWIHWVRQAPGQGLEWIGVIDPSDTYPNYNKKFKGRVTMTVVVSTSTAYMELRSLRSDDTAVYYCARNGDSDYYSGMDYWGQGTTVTVSSGGCGGGKVAALKEKVAALKEKVAALKEKVAALKEGGGNS
chain 2: EIVLTQSPDFQSVTPKEKVTFTCRTSQSIGTNIHWYQQKPDQSPKLLIKEVSESISGVPSRFSGSGSGTDFTLTINSLEAEDAATYYCQQSNTWPFTFGGGTKVEIKGGGSGGGGQVTLRESGPALVKPTQTLTLTCTFSGFSLSTSGMGVGWIRQPPGKALEWLAHIWWDDDKRYNPALKSRLTISKDTSKNQVVLTMTNMDPVDTATYYCAQINPAWFAYWGQGTLVTVSSGGCGGGEVAALEKEVAALEKEVAALEKEVAALEKGGGNSLAEAKVLANRELDKYGVSDYYKNLINNAKTVEGVKALIDEILAALP
notes: also called hCD16-hCD32B EK ABD-DART; DART ABD fusion
Consider B10, for which the binding result (in [6]; in the test with soluble CD16A(158F); in test [7]; in [8]) was “binds” in each case.

B11: product of constructs 1 and 9 (pMGX0669+pMGX0719) (bispecific antibody)
chain 1: EIVLTQSPDFQSVTPKEKVTFTCRTSQSIGTNIHWYQQKPDQSPKLLIKEVSESISGVPSRFSGSGSGTDFTLTINSLEAEDAATYYCQQSNTWPFTFGGGTKVEIKGGGSGGGGQVTLRESGPALVKPTQTLTLTCTFSGFSLSTSGMGVGWIRQPPGKALEWLAHIWWDDDKRYNPALKSRLTISKDTSKNQVVLTMTNMDPVDTATYYCAQINPAWFAYWGQGTLVTVSSLGGC
chain 2: not shown
notes: hinge-Fc at the N-terminus of the heavier chain; also called constructs 9+1; copies: 2 + 2
For B11, the binding result in test [9] and in test [10] was “binds” each time.

B12: product of constructs 1 and 10 (pMGX0669+pMGX0718) (bispecific antibody)
chain 1: B11 chain 1
chain 2: not shown
notes: Fc at the N-terminus of the heavier chain; also called constructs 10+1; copies: 2 + 2
As for B12, the binding result in test [9] and in [10] was “binds” each time.

B13: h3G8 CMD (covalent monospecific diabody, construct 3) (other)
chain: DIVMTQSPDSLAVSLGERATINCKASQSVDFDGDSFMNWYQQKPGQPPKLLIYTTSNLESGVPDRFSGSGSGTDFTLTISSLQAEDVAVYYCQQSNEDPYTFGQGTKLEIKGGGSGGGGQVTLRESGPALVKPTQTLTLTCTFSGFSLSTSGMGVGWIRQPPGKALEWLAHIWWDDDKRYNPALKSRLTISKDTSKNQVVLTMTNMDPVDTATYYCAQINPAWFAYWGQGTLVTVSSLGGC
modifications: covalent homodimer; interchain disulfide through the C-terminal LGGC cysteines
notes: covalent homodimer diabody; also called h3G8 diabody
In the case of B13, the equilibrium dissociation constant (Kd) in test [11] was 18 nM.

B14: product of co-expression of constructs 7 and 8 (pMGX0677+pMGX0678), tetrameric IgG-like diabody (bispecific antibody)
chain 1: EIVLTQSPDFQSVTPKEKVTFTCRTSQSIGTNIHWYQQKPDQSPKLLIKEVSESISGVPSRFSGSGSGTDFTLTINSLEAEDAATYYCQQSNTWPFTFGGGTKVEIKGGGSGGGGQVTLRESGPALVKPTQTLTLTCTFSGFSLSTSGMGVGWIRQPPGKALEWLAHIWWDDDKRYNPALKSRLTISKDTSKNQVVLTMTNMDPVDTATYYCAQINPAWFAYWGQGTLVTVSSLGGCFNRGEC
chain 2: not shown
As for B14, the binding result in test [9] and in test [10] was “binds” in each case.

B15: product of constructs 11 and 12 (bispecific antibody)
chain 1: not shown
chain 2: DIVMTQSPDSLAVSLGERATINCKASQSVDFDGDSFMNWYQQKPGQPPKLLIYTTSNLESGVPDRFSGSGSGTDFTLTISSLQAEDVAVYYCQQSNEDPYTFGQGTKLEIKGGGSGGGGQVQLVQSGAEVKKPGASVKVSCKASGYTFTNYWIHWVRQAPGQCLEWIGVIDPSDTYPNYNKKFKGRVTMTVVVSTSTAYMELRSLRSDDTAVYYCARNGDSDYYSGMDYWGQGTTVTVSSFNRGEC
notes: C-terminal hinge-Fc; engineered cysteines G105C (2B6 VL) and G44C (2B6 VH); copies: 2 + 2
For B15, the binding result in test [9] and in [10] was “binds” throughout.

B16: product of constructs 15 and 16 (pMGX0752+pMGX0753) (bispecific antibody)
chain 1: EIVLTQSPDFQSVTPKEKVTFTCRTSQSIGTNIHWYQQKPDQSPKLLIKEVSESISGVPSRFSGSGSGTDFTLTINSLEAEDAATYYCQQSNTWPFTFGGGTKVEIKGGGSGGGGQVTLRESGPALVKPTQTLTLTCTFSGFSLSTSGMGVGWIRQPPGKALEWLAHIWWDDDKRYNPALKSRLTISKDTSKNQVVLTMTNMDPVDTATYYCAQINPAWFAYWGQGTLVTVSSFNRGEC
chain 2: B15 chain 2 with C163G, F241V, N242E, R243P, G244K, E245S
notes: Hu2B6VL-Hu3G8VH-FNRGEC and Hu3G8VL-Hu2B6VH-VEPKSC; also called construct 15/16 combination
On to B16, for which the binding result in test [12] and in [13] was “binds” each time.

Usually Kd stands for a measure of binding affinity in units of concentration. A low value points to higher affinity.
